# Target: T1, Epidermal Growth Factor Receptor (EGFR) (human, UniProt P00533 25-1210)
# T1 construct: whole, on cells; also called HER1; EGF receptor
# Test: heading of the results section on rhMATN2 added to MDA-MB-231 cells
binder,measurement,value
"recombinant human MATN2 (rhMATN2) (ligand, UniProt O00339 24-956, looked up, also called Matrilin2; human recombinant MATN2) RERSRGRSISRGRHARTHPQTALLESSCENKRADLVFIIDSSRSVNTHDYAKVKEFIVDILQFLDIGPDVTRVGLLQYGSTVKNEFSLKTFKRKSEVERAVKRMRHLSTGTMTGLAIQYALNIAFSEAEGARPLRENVPRVIMIVTDGRPQDSVAEVAAKARDTGILIFAIGVGQVDFNTLKSIGSEPHEDHVFLVANFSQIETLTSVFQKKLCTAHMCSTLEHNCAHFCINIPGSYVCRCKQGYILNSDQTTCRIQDLCAMEDHNCEQLCVNVPGSFVCQCYSGYALAEDGKRCVAVDYCASENHGCEHECVNADGSYLCQCHEGFALNPDKKTCTKIDYCASSNHGCQHECVNTDDSYSCHCLKGFTLNPDKKTCRRINYCALNKPGCEHECVNMEESYYCRCHRGYTLDPNGKTCSRVDHCAQQDHGCEQLCLNTEDSFVCQCSEGFLINEDLKTCSRVDYCLLSDHGCEYSCVNMDRSFACQCPEGHVLRSDGKTCAKLDSCALGDHGCEHSCVSSEDSFVCQCFEGYILREDGKTCRRKDVCQAIDHGCEHICVNSDDSYTCECLEGFRLAEDGKRCRRKDVCKSTHHGCEHICVNNGNSYICKCSEGFVLAEDGRRCKKCTEGPIDLVFVIDGSKSLGEENFEVVKQFVTGIIDSLTISPKAARVGLLQYSTQVHTEFTLRNFNSAKDMKKAVAHMKYMGKGSMTGLALKHMFERSFTQGEGARPLSTRVPRAAIVFTDGRAQDDVSEWASKAKANGITMYAVGVGKAIEEELQEIASEPTNKHLFYAEDFSTMDEISEKLKKGICEALEDSDGRQDSPAGELPKTVQQPTESEPVTINIQDLLSCSNFAVQHRYLFEEDNLLRSTQKLSHSTKPSGSPLEEKHDQCKCENLIMFQNLANEEVRKLTQRLEEMTQRMEALENRLRYR",binding result,binds

# — US20190152966A1 (INSTITUTE OF CANCER RESEARCH ROYAL CANCER HOSPITAL, published 2019)
